According to the nanobody polyreactivity screen of Harvey et al. (2022):

Experiment: yeast display, Sf9 membrane polyspecificity reagent, FACS + sequencing; frameworks hold sequencing errors
Method in brief: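 After 36–48 hours of galactose induction, yeast (Saccharomyces cerevisiae BJ5465) displaying a synthetic nanobody library were stained at 4 °C for 1 hour with 10% biotinylated, detergent-solubilized Sf9 membrane reagent. Streptavidin microbeads enriched the stained cells before FACS sorting into low and high (top ~1%) gates on anti-HA and streptavidin fluorescence. Each clone's polyreactivity label reflects its gate of origin.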

Row | Sequence | polyreactivity (PSR sort gate)
1 | QVQLVESGGGLFQAGGSLRLSCAASGITFSKNSMGWYRQAPGQERELVAAITRRSVSKYYADSVKGRFTISRDNENNNLYLQMNSLKPEYTAVYYCAASYSSKHGYWGQGTQVTVSS | high polyreactivity
2 | QVQLVESGGGLVQAGGSLGLSCAASGFIFDAYAMGWYRQAPGKERELVAGISIGGRTNYADSVKGRFTISRDNAKNTVYLQMNSLKPEDTAVYYCAARNYRYYYGSYYRGPITNYEYWGQGTQVTVSS | low polyreactivity
3 | QVQLVESGGGLVQAGGSLRLSCAASGRIIRIYTMGWYRQARGKERELVAAITKSGGSTSYADSVKGRFTISRDNAKNTVYLQMNSLKPEDTAVYYCNAKGWTRPPGYDYWGQGTQVTVSS | high polyreactivity
4 | QVQLVESGGGLVQAGGSLRLSCAASGSTFYKYAMGGYRQAPGKERELVASITSGGRTYYADSEKGRFTISRDNAKNTVYLQMNSLKPDDTAVYYCAKRYGRLTRYDYWGQGTQVTVSS | high polyreactivity
5 | QVQLVESGGGLVQAGGSLRLSCAASGSTFYPYAMGWYRQAPGTEREFVAAITWSGGSTYYADSVKGRFTISRDNAKNTVYLQMNSLKPDDTAVYYCNAVVATSKYTDYYWGQGTQVTVSS | low polyreactivity
6 | QVQLVESGGGLVQAGGSLRLSCAASGRTFRRNAMGSYRQAPGKERELVATITGGGTNYADSVKGRFTISRDNAKNTVYLQMNSLKPEDTAVYYCAVGTRFYVPRRFDYWGQGTQVTVSS | high polyreactivity
7 | QVQIVESGGGLVQAGGSLRLSCAASGIFYAMGWYRQAPWTKRELDDAISSVGSTNYADSVKGRFSISRDNAKNTVYLQMNSLKPEDTAVYYCAAYFYTYPVDRYGSYYWGQVTQVTVSS | low polyreactivity
8 | QVQLVESAGGVVQAGGSLRLSCAASGRIFGYNTMGWYRQAPGKERELVAAISGSGASTYYADSVKGRFTISRDNAKNTVYLQMNSLKAEDTAVYYCAAKAYYSTSPYHREHDSWGQGTQVTVSS | low polyreactivity
9 | QVQLVESGGGLVQAGGSLRLSCAASGSIFKGYAMGWYRQAPGKERELVAAISSSGGSTYYADSVKGRFTISRDNAKNTVYLQMNSLKPEDTAVYYCNTDRYYTYDYWGQGTQVTVSS | low polyreactivity
10 | QVQLVESGGGLVQAGGSIRFSCAASGRIFAHYAMGWYRPAPGKERELVAAISSSGTRTYYADSVKGRFTISRDNAKNTVYLQMNSLKPEDTAVFYCAKDSYHTVWGGYWGQGTQVTVSS | high polyreactivity
11 | QVQLEESGGGLVQAGGSLRLSSAASGRIFRAYAMGRYRQAPGKERELVAAITSGGGSTYYADSVKGRFTISRHNAKNTVYLQMNSLKPEDTAVYYSAAKSSRIAYSSWFYYATFDYWGQGTQVTVSS | high polyreactivity
12 | QVQLVESGAGLVQAGGSLRLSCAASGSTFYMYAMGWDRTATGKERELLADISLSGVSTYYADSVKGRFTFSRDNAKHTVYLQMNSLKPEDTAVYYCAADVFYPGPWSYEYWGQGTHVTVSS | low polyreactivity
13 | QVQLVESGGGLVQAGGSLRLSCAASGSTFDAYAMGWYRQAPGKERELVAAITNAGSTNYADSVKGRFTISRDNAKNTVYLQMNSLKPEDTAVFYCAADVSRWLDYGYDYWGQGTQVTVSS | low polyreactivity
14 | QVQLVESGGGLVQAGGSLRLSCAASGSTFTSYAMGWYRQAPGKERELVAAIRYRGDGTYYADSVKGRCTISRDNAKNTVNLQMNSLKPEDNAVYYCAADTTLQAFIRYRPIGSYDSWGQGTKVTVSS | low polyreactivity
15 | QVQLVESGGGLVQAGGSRRLSCAASGSTVYTNAMGWSRQAPGKVRELVAAISGSGGSTYYADSVKGRFTISRDNPKNTVYLQMNSLKPEDTAVYYCAARSRNYDTRFDYWGQGTQVTVSS | low polyreactivity
16 | QVQLVESGGGLVQAGGSLRLSCAASGRIFYPYAMGWYRQAPGKERELVAAITWSTGRTYYADSVKGRFTISRDNAKNTVYLQMNSLKPEDTAVYYCAATGTLKRRYGYWGQGTQVTVSS | high polyreactivity

Row | Sequence | polyreactivity (PSR sort gate)
17 | QFQRVDSGGGLVQAGGSLRLSCAASGSTLAVNAMGWYRQAHGKERELVAAITRSGGRTYYADSLKWRFTISRDNAKNTVYLQMNSLKPEDTAVYYFGAKWYYPFIPKRTTRYGFDYWGHGTQVTVSS | high polyreactivity
18 | QVQLVESGGGLVQAGGSLRLSCAASGRIFRGNGMGWYRQAPGKERELVAAIRRSGGSTYYADSVKGRFTISRDNAKNTVYLQMNSLKPDDTAVFYCNADYTVVLSRVIYARGYWGQGTQVTVSS | high polyreactivity
19 | QVQLVESGGGLVQAGGSLRLSCAASGYTFVYYAMGLYRQAPGKERELVAAITSGGRTNYADSVKGRFTISRDNAKNTVYLQMKSLKPEDTAVYYCNVDGYYLFVRGYEYWGQGTQVTVSS | low polyreactivity
20 | QVQLVESGGGLVQAGGSLRLSCAASGRTFSANAMGWYRQAPGKERELVAAISSGGSTTYADSVKGRFTISRDNAKNTVYLQMNSLKPEDTAVYYCAAVWLSLFKGWVDTHEYDYWGQGTQVTVSS | low polyreactivity
21 | QVQLVESGGGLVQARGSLRLSCAASGIILYRNGMGWYRQAPGKERELVAAISWSTGSTYYADSVKGRFTISRDNAKNTVYLQMNSLKPEDTAVYYCATDYVGYSFGMYYWGQGTQVTVSS | low polyreactivity
22 | QVQLVESGGGLVQAGGSLRLSCAASGHTFAYNAMGWYRQAPGKEREFVAAITWSTDNTYYADSVKGRFTISRDNAKNTVYLQMNTLKPEDTAVYYCAVDVYFYYRHYGYWGQGTQVTVSS | low polyreactivity
23 | QVQLVDSGGGLVKAGGSLRLSCAASGSTFAYYAMGWYRQAPGKERELVAAISWNGGSTYYADSVKGRFTISRDNAKNTVYLQMNSLKPEDTAVYYCAAEVYDYTYVVTFLYDYWGQGTQVTVSS | high polyreactivity
24 | QVQLVESGGGLVQAGGSLRLSCAASGSTLAGYAMGWSRQAPGKERELVAAITRRGGRTYYADSVKGRFTISRDNAKNTVYLQMNSLKPEDTAVYYCAAQRSVKVDYWGQGTQVTVSS | high polyreactivity
25 | QVQLVESGGGLVQAGGSLRLSCAASGLIFYYYVKGWYRQAPGKERELVAAISVIGDSTYYADSVKGRFTISRDNAKNTVYLQMNSLKPEDTAVYYCNADPWRWDRESRYEYWGQGTQVSVSS | high polyreactivity
26 | QVQLVESGGGLVQAGGSLRLSCAASGSIFVSYAMGWYRQAPGKERELVAAITVSGGSTYYADSVKGRFTISRDNAKNTVYLQMNSLKPEDTAVYYCAADSWDDWVVEFYYWGQGTQVTVSS | low polyreactivity
27 | QVQLVESGGGLVQAGGSLRLSCADSGRIIDTYAMVWYRQAPGKERELVASISRSDTSTSNADSVKGRFTISRDNAKNTVYLQMNSLKPEDTAVYYCNKDGVPVNNTKRYDYWGQGTQVTVSS | low polyreactivity
28 | QVQLVESGGGLVQAGGSLRLSCAASGFIFRGYAMGWYRQAPGKERELVAAISRRGGSTYYADSVKGRFTISRDNAKNTVYLHMNSLKPEDTAVYYCNAETTPQGNVRDGYWGQGTQVTVSS | high polyreactivity
29 | QVQLVESGGGLVQAGGSLRLSCGASGRTIDYNGMGWYRQEPGKERELVSVISSSGGSTFYADSVKGRFTISRDNAKNTVYLQMNSLEPEDTAVYYCAALHVGHNYYNSGFYYWGQGTQVTVSS | low polyreactivity
30 | QVQLVESGGGLVQAGGSLRLSCAASGSIFITYAMGWYRQAPGKERELVAAIRRGGRTNYADSVKGRFTISRDNAKNTVYLQMNSLKPEDTAVYYCAAEFRTGWPYYPDYAYDYWGQGTQVTVSS | low polyreactivity
31 | QVQLEESGGGLVQAGGSLRLSCAASGFTFDGYAMGWYRPAPGKERELVAAITSSGGSTYYADSVKGRFTISRDNTKNTVYLQMNSLKPEDTAVYYCNAVYYYGYYYYWTEFNYWGQGTQVTVSS | high polyreactivity
